In test [1] the target is T1, rat betaglycan ZP-C domain (BG_(ZP-C)), mammalian-expressed.
T1 chain: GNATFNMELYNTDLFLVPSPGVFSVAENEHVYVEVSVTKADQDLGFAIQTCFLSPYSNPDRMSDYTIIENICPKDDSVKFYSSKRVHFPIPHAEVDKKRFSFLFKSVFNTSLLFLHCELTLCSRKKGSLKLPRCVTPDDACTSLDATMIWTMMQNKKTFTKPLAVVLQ
Put plainly: SPR. The note with it: chain shown with the change; analyte: BGZP-C; parent: est. 95; read off a plot.

The target of test [2] is T2, inhibin A (InhA), mature heterodimer, unlabelled, P05111;P08476.
T2 chain 1: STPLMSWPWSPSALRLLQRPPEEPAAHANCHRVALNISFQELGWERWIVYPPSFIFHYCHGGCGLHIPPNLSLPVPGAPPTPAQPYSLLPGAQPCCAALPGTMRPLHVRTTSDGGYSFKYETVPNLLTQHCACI
T2 chain 2: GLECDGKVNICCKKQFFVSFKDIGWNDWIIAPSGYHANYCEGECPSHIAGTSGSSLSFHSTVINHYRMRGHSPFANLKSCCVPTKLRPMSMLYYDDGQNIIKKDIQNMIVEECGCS
Briefly: SPR. To be noted: chain shown with the change.

In test [3] the target is TGF-β2 (Q57A, K60A, L64A) (human). Put plainly: SPR; BIAcore T200; TGF-β2 WT or TGF-β2 mutants amine-coupled (EDC-NHS) to a CM4 chip, max 400 RU; zfBGO WT or BGZP-C WT injected, 2-fold dilution series 250 - 15.6 nM; 10 mM CHES, 150 mM NaCl, 3 mM EDTA, 0.01% P20, pH 8.0; 100 µl/min; 1:1 kinetic model with drift; three consecutive repeats.
In test [4] the target is TGF-β2 (Y50A, L51A) (human). The test is described as above.
Test [5] deals with T3, TGF-β2 (growth factor domain, wild type) (human).
T3 sequence (P61812 303-414, looked up): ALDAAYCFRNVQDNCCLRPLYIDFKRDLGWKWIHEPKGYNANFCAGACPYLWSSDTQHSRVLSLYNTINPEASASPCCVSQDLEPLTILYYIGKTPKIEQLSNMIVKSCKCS
The description is as above.

Test [6] shares this target. Briefly: SPR; TGF-β2 immobilised on the chip surface; ratBGO, zfBGO, ratBGO-zfBL or ratBGO-Y248A injected, 2-fold dilution series 500 - 31.3 nM; three consecutive repeats.
Setting [7] is: surface: InhA, parent: est. 1100 nM, read off a plot.

B1: TGF-β2 homodimer (growth factor domain), unlabelled Y50A; L51A (protein)
chain: ALDAAYCFRNVQDNCCLRPLYIDFKRDLGWKWIHEPKGYNANFCAGACPAAWSSDTQHSRVLSLYNTINPEASASPCCVSQDLEPLTILYYIGKTPKIEQLSNMIVKSCKCS
B1: the dissociation constant Kd in test [1] is 110 nM.

B2: rat betaglycan ZP-C domain (BG_(ZP-C)), mammalian-expressed N82Y (protein)
chain: GNATFNMELYNTDLFLVPSPGVFSVAENEHVYVEVSVTKADQDLGFAIQTCFLSPYSNPDRMSDYTIIEYICPKDDSVKFYSSKRVHFPIPHAEVDKKRFSFLFKSVFNTSLLFLHCELTLCSRKKGSLKLPRCVTPDDACTSLDATMIWTMMQNKKTFTKPLAVVLQ
With B2, in test [2] (setting [7]), the Kd amounted to 850 nM.

B3: rat betaglycan ZP-C domain (BG_(ZP-C)), mammalian-expressed A158E (protein)
chain: GNATFNMELYNTDLFLVPSPGVFSVAENEHVYVEVSVTKADQDLGFAIQTCFLSPYSNPDRMSDYTIIENICPKDDSVKFYSSKRVHFPIPHAEVDKKRFSFLFKSVFNTSLLFLHCELTLCSRKKGSLKLPRCVTPDDACTSLDETMIWTMMQNKKTFTKPLAVVLQ
With B3, the Kd in test [2] (500 - 15.6 nM, 2-fold dilution series) came out at 1810 nM; in test [2] (setting [7]), 1800 nM.

B4: rat betaglycan ZP-C domain (BGZP-C), wild type (domain or fragment)
chain: GNATFNMELYNTDLFLVPSPGVFSVAENEHVYVEVSVTKADQDLGFAIQTCFLSPYSNPDRMSDYTIIENICPKDDSVKFYSSKRVHFPIPHAEVDKKRFSFLFKSVFNTSLLFLHCELTLCSRKKGSLKLPRCVTPDDACTSLDATMIWTMMQNKKTFTKPLAVVLQ
With B4, the Kd in test [3] turned out to be 99 nM; in test [4], 113 nM; in test [5] it was 95 nM.

B5: rat betaglycan orphan domain (ratBGO), wild type (domain or fragment)
chain: CELSPINASHPVQALMESFTVLSGCASRGTTGLPREVHVLNLRSTDQGPGQRQREVTLHLNPIASVHTHHKPIVFLLNSPQPLVWHLKTERLAAGVPRLFLVSEGSVVQFPSGNFSLTAETEERNFPQENEHLLRWAQKEYGAVTSFTELKIARNIYIKVGEDQVFPPTCNIGKNFLSLNYLAEYLQPKAAEGCVLPSQPHEKEVHIIELITPSSNPYSAFQVDIIVDIRPAQEDPEVVKNLVLILKCKKSVNWVIKSFDVKGNLKVIAPNSIGFGKESERSMTMTKLVRDDIPSTQENLMKWALDNGYRPVTSYTMAPVANRFHLRLEN
In test [6], B5 came in with an equilibrium dissociation constant (Kd) of 72 nM.

B6: ratBGO-Y248A (domain or fragment)
chain: CELSPINASHPVQALMESFTVLSGCASRGTTGLPREVHVLNLRSTDQGPGQRQREVTLHLNPIASVHTHHKPIVFLLNSPQPLVWHLKTERLAAGVPRLFLVSEGSVVQFPSGNFSLTAETEERNFPQENEHLLRWAQKEYGAVTSFTELKIARNIYIKVGEDQVFPPTCNIGKNFLSLNYLAEYLQPKAAEGCVLPSQPHEKEVHIIELITPSSNPASAFQVDIIVDIRPAQEDPEVVKNLVLILKCKKSVNWVIKSFDVKGNLKVIAPNSIGFGKESERSMTMTKLVRDDIPSTQENLMKWALDNGYRPVTSYTMAPVANRFHLRLEN
B6: in test [6], the Kd was 102 nM.

The values above are taken from PMC11865472.
